For experiment [1], the target named is T1, hRGMa-Fc (human, UniProt Q96B86 47-422, limits assumed, biotinylated in the neogenin ELISA and the MSD assay).
T1 construct: also called biot-hRGMa-Fc; biotinylated hRGMa-Fc; not shown: Fc part
T1 sequence: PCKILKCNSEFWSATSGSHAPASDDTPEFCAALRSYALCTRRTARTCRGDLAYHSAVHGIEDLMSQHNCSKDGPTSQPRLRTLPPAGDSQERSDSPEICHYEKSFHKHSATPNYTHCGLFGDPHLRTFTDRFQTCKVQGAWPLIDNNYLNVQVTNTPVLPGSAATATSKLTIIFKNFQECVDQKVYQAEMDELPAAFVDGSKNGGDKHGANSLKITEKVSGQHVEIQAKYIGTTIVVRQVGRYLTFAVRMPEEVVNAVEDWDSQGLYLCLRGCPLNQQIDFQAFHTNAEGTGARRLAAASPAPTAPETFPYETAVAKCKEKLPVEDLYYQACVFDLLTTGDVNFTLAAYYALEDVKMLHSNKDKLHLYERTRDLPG
As to the kind of experiment: HCS (high content analysis) live cell binding inhibition assay: Fc-tagged RGMa complexed with Cy3-labeled anti-Fc antibody, preincubated with the antibody, then added to cells for 30 min at 37 C; blocked: RGMa-Fc binding to SH-SY5Y cells; n=2. The protocol: FIGS. 13A-F and 14A-H illustrate the neutralizing effects of the specified antibodies on RGMa binding to neuronal cells using a live cell binding assay on SH-SY5Y cells and rat hippocampal primary neurons. Fc-tagged RGMa and Cy3-labeled anti-Fc antibodies are complexed at 4° C. for 60 minutes, followed by an incubation of the complex with a blocking antibody at room temperature for 10 minutes. The RGMa-Cy3 +antibody complex is then added to cells together with Hoechsts 33342 for 30 minutes at 37° C. to allow binding onto the cells. The cell are then washed twice in culture medium and fixed with PFH. Cell imaging is performed with the BD Pathway and images analyzed with the Definiens Architect software.

Experiment [2] has as its target T2, Rat RGMa-His (rat) (UniProt D4A188).
T2 sequence: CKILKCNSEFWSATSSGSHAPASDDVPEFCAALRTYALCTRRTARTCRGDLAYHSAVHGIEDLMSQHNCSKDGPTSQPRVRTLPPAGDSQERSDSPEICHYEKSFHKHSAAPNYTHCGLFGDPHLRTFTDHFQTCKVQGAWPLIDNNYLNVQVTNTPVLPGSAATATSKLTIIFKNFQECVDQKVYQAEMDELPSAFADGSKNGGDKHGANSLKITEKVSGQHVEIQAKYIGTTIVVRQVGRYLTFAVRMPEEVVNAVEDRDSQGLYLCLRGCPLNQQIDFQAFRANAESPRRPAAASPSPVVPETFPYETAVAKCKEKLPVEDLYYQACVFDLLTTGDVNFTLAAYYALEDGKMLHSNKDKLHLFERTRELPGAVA
As to the kind of experiment: BIAcore.

B1: AE12-6 (antibody, V domains shown)
VH: EVQLVQSGAEVKKPGASVKVSCKASGYIFTNYDIAWVRQAPGQGLEWMGWMNPDSGNTGFVQKFKGRVTATSNTDITTAYMELSSLTSEDTAVYYCARDRFGSGYDLDHWGQGTLVTVSS
VL: SYELTQPPSVSVAPGQTARITCGGNNIGSKSVHWYQQKPGQAPVLVVYDDSDRPSGIPERFSGSNSGNTATLTISRVEAGDEADYYCQVWGSSSDHYVFGTGTKVTVL
notes: lambda light chain
In the case of B1, the “IC50 (read off the curve)” value in experiment [1] is around 10 nM.

B2: AE12-1-V (antibody, V domains shown)
VH: EVQLVQSGAEVKKPGASVKVSCKASGYTFTSHGISWVRQAPGQGLDWMGWISPYSGNTNYAQKLQGRVTMTTDTSTSTAYMELSSLRSEDTAVYYCARVGSGPYYYMDVWGQGTLVTVSS
VL: QSALTQPRSVSGSPGQSVTISCTGTSSSVGDSIYVSWYQQHPGKAPKLMLYDVTKRPSGVPDRFSGSKSGNTASLTISGLQAEDEADYYCVSYAGTDTLFGGGTKVTVL
In the case of B2, the kon in experiment [2] came out at 22000 M⁻¹ s⁻¹.
